# In the DeepSol protein solubility set:
# Test: soluble on expression in E. coli; label from the status in PepcDB or PDB records
row,Sequence,soluble on expression in E. coli
1,MGSDKIHHHHHHMQIYLANPRGFCAGVDRAIAIVNEALLRFEPPIYVRHEVVHNKFVVSDLANRGAVFVEELHEVPDGSIVIFSAHGVSKAVEDEAERRDLTVFDATCPLVTKVHIEVAKFAQDGMDAVLIGHAGHPEVEGTMGRFNHRHGGRIHLVENESDVEALSVQDAERLAFVTQTTLSMDDTARVIDALREKFPHIQGPRKDDICYATQNRQDAVKHLASRCEVVLVVGSPNSSNSNRLRELAERMNCRAYLIDNATEMDINWFDGIQSVGVTAGASAPEVLIQEVLQQLQDWGGDLPSELSGIEENVTFSLPKALRIPMTQVGK,not soluble
2,MSEHVFETEQVYPALGKVEIAPEVIEVIAGIAASEVDGIAQMRGNFAAGVAERFGKKHHGKGVKVDLRDDGVVIDLYCLVQFGASIPNVAKKVQENVRQALWNMTGLEASEVNVHIVGIQFEGGKQEQGVVEQ,not soluble
3,GSPEFMDDIFTQCREGNAVAVRLWLDNTENDLNQGDDHGFSPLHWACREGRSAVVEMLIMRGARINVMNRGDDTPLHLAASHGHRDIVQKLLQYKADINAVNEHGNVPLHYACFWGQDQVAEDLVANGALVSICNKYGEMPVDKAKAPLRELLRERAEKMGQNLNRIPYKDTFWKGTTR,soluble
4,MGSDKIHHHHHHMARYTGPLCKLCRREGMKLYLKGERCYTDKCAFDRRPYAPGQHGQRRTKLTQYGIQLRAKQTVKRIYGILERQFERYVEKAMQKAGDTRENLIQILEARLDNVVYRMGFAINRRQARQLVNHGHFLVNGKKVNIPSYLLRPNDVVEVREKSRDLEVIKKAIEANKERSIVPWIEVDYDNYRGTFLRYPSLEEVTDLPVDLQTVIEFYSR,not soluble
5,AHHHHHHGSLVVKDLNVEYDNVKVLKGISFALNSGEKAIILGTNGAGKTTLLKSLLGLIPIKSGKIQICGKPYEKVVGEKKVSTNLESVYKLVYSIKVSELIDLYCDLKEIPSQQILNFIKEMKLEHILEKKFYNLSSGEKKCLTNLLAFFTDSKLILLDEPFEGLDPWRTNKTVEILNSLKSSIIMTTHRLDILSKFSTFKVYFLFNGHLYGPIRSASDLVNCYVTFSDIEEGESDIVLRIQGDKKNVILTRRPIGQKISDYASIDEIYRVMLE,not soluble
6,MSLSDVSSNYWAAPFIQQLSQRGVIAGFPDGSFRPEEAVTRAQFAAMVNKAFQKSQQRSPINFADVPSNYWASSAIQQAYTIGFLSGYPGNRFEPNQAIPRQQVLVSLANGLEYSPIGNTESTLQYFNDASNIASYARSPMAAATEKQIVVNYPNVKFLNPTATATRAQVAAFIYQALVSSNQASAINSEGHHHHHH,soluble
7,MKSGIYQIKNTLNNKVYVGSAKDFEKAWKRHFKDLEKGCHSSIKLQRSFNKHGNVFECSILEEIPYEKDLIIERENFWIKELNSKINGYNIADATFG,soluble
8,MGSDKIHHHHHHAGVVVPKYTPSTENPGGPGEEPGDGLIDPAEPLDRGFMHLKGRELKSLNSISITGLNDGEKVILSTLAGLAARVTGDQVYINEGGPSSVWLKQMQNKYGIPVNTYNALAPLVQHYVETGVIKGYIVYTPYSEGQSHSINVATSLCGLLRGIAVPESLVDKVKAMGVTTELMDVRSYDEKWLYENYKDQLDKSLAADMKPEIFHHLRDYITMTNAFAFYDYNARRDWSWRTSILKDLDKGAYCFGYYDLDEWGMVNNASQLGVSMLPTDQAANLATLSSIYDTTGLKQRPATKEVVTEENVHYVTFLVSDGDNIAFNLWGQQGYMDHDLHGQFPLGYTISPSLYDLAPAALRWYYENSKEGDYFVAGPSGSSYIFPSKMSDADLDDYLAKLNEYVDKSGLNICNILDQKIMDNPKVYNKYLAQPNIDAIFYTGYGEKGDGRIKFSDNGKPVIEQRSVLWEGIDGGSNRGEESTVISQINSRSANPHSADGYTFVFVHCWTKNQQSIKTVIDGLNDNVRVVPVDQFVQLVKQNLGPK,not soluble
9,GDNDAIYYPVGDVDIERGGPALEVGEEDVLVARSFNEEDYVLDTIAQYPNDPTLGKLTFMIDLKNQQKDQNVADFNGVGKSKLTMSLGYKDGNYPSESQVPIYTSQDVTAKYAVKLRLKGELLVSGDEWMIDYVYAQLASLFQPYPPANFPEVFMCKGGMKLGTFDSFRRTCTFDITYDRSDLSFSQLYFNLFINLAGQKRENRVRLRIDKESYFELYEQSEEM,soluble
10,MDREALLQAVKEARELAKPRNFTQSFEFIATLKEIDMRKPENRIKTEVVLPHGRGKEAKIAVIGTGDLAKQAEELGLTVIRKEEIEELGKNKRKLRKIAKAHDFFIAQADLMPLIGRYMGVILGPRGKMPKPVPANANIKPLVERLKKTVVINTRDKPYFQVLVGNEKMTDEQIVDNIEAVLNVVAKKYEKGLYHIKDAYVKLTMGPAVKVKKEKAKKK,soluble
11,NCSKIHLSTKLLAVDFPAHFVKSISCQICEHILADPVETSCKHLFCRICILRCLKVMGSYCPSCRYPCFPTDLESPVKSFLNILNSLMVKCPAQDCNEEVSLEKYNHHVSSHKESK,soluble
12,MANRKYFGTDGVRGKVGAYPITPDFALKLGWAAGKVLASQGSKMVLIGKDTRISGYMLESALEAGLAAAGLSAAFTGPMPTPAIAYLTRTFRAEAGIVISASHNPYYDNGIKFFSAKGTKLPDEIEEAIEAMLEQPMDCVESAELGKASRINDAAGRYIEFCKGTFPAHLGLEGYKIVVDCANGATYHIAPNVLRELGAEVIEIGTDPNGLNINEKCGATDVTALQAKVVETKADVGLAYDGDGDRIMMVDHLGNKVDGDQILFIIAREALRSGQLKGGVVGTLMSNMSLEIALKMLGVPFLRANVGDRYVLEKMVENDWTLGGENSGHIIIADKNTTGDGIVASLAVLAAMAQHKLSLNELASAVKLFPQVLINVRFAGGENPLESDAVKSVAAEVEKRLEGKGRILLRKSGTEPLIRVMVECQDAELAQQCAEEIAEAVKKIN,not soluble
13,MFSIDDVAKQAQSLAGKGYETPKSNLPSVFRDMKYADYQQIQFNHDKAYWNNLKTPFKLEFYHQGMYFDTPVKINEVTATAVKRIKYSPDYFTFGDVQHDKDTVKDLGFAGFKVLYPINSKDKNDEIVSMLGASYFRVIGAGQVYGLSARGLAIDTALPSGEEFPRFKEFWIERPKPTDKRLTIYALLDSPRATGAYKFVVMPGRDTVVDVQSKIYLRDKVGKLGVAPLTSMFLFGPNQPSPANNYRPELHDSNGLSIHAGNGEWIWRPLNNPKHLAVSSFSMENPQGFGLLQRGRDFSRFEDLDDRYDLRPSAWVTPKGEWGKGSVELVEIPTNDETNDNIVAYWTPDQLPEPGKEMNFKYTITFSRDEDKLHAPDNAWVQQTRRSTGDVKQSNLIRQPDGTIAFVVDFTGAEMKKLPEDTPVTAQTSIGDNGEIVESTVRYNPVTKGWRLVMRVKVKDAKKTTEMRAALVNADQTLSETWSYQLPANEVEHHHHHH,soluble
14,MQNRLTIKDIARLSGVGKSTVSRVLNNESGVSQLTRERVEAVMNQHGFSPSRSARAMRGQSDKVVAIIVTRLDSLSENLAVQTMLPAFYEQGYDPIMMESQFSPQLVAEHLGVLKRRNIDGVVLFGFTGITEEMLAHWQSSLVLLARDAKGFASVCYDDEGAIKILMQRLYDQGHRNISYLGVPHSDVTTGKRRHEAYLAFCKAHKLHPVAALPGLAMKQGYENVAKVITPETTALLCATDTLALGASKYLQEQRIDTLQLASVGNTPLMKFLHPEIVTVDPGYAEAGRQAACQLIAQVTGRSEPQQIIIPATLS,soluble
15,MMTNPKVIILGGRFGGLQTAYELKRYLKGKIDIKLIERNRYIYFRPALPHVAIGLENPDDLRIDISEALSAKGIEYIQGTVTRIDPAKNTVEYNKEGAGPSKEKYDYLVIALGSHLATELITGFEKFGSSVCEADLALSMWNKLNAFKGGNITLGSAKFIQDNKNRPTNNPDAYAPLLESACEGPVYEMSIMLYDYFKAKGMLDKVKMTVYSPGKYLSDLSETNRATVAAMYKGMDIDIVDNFVLKEVTEKEVISEDGKRLPSDLSFILPPYMGQQMVKDAGLGDEAGFVLTDTNMKSVKYDNVYAVGDINALIVPKMAALAVKSARIAAANIANNLGNKVPIEVYDPKIVCIADDPYGKYAVAIVDSTAYGGNISEAVPSAANHLKKSLFTRYFLWSKGDLAMDKYLTSWLEHHHHHH,not soluble
16,MGSDKIHHHHHHMSTLDIAEDNKIKNEEFKIWKKSIPSLYQHISSLKPIFGSGVDESPSTLRSIVFTNDSSCNKSKGVLSVPLLYSQGSEIFEVDCIVPLGLHYKKPESISEPLVQPDYTMESQKVEQTVLIPKWEFKGETIAKMIYVDNSEINVKVIALSTNGSLAWFREGVKSPVYTMMEPSTSLSSASSGNQNKPCVDFAISNDSKTLTVTKEKHLDNENATIKLIDNSGKIGEVLRTIPVPGIKNIQEIKFLNNQIFATCSDDGIIRFWGNEIGKKPLWILNDSLDGKTTCFAASPFVDTLFMTGTSGGALKVWDIRAVIALGDADAELNINQGHNKVNELFKVHHFYSEQVSKIEFSSISPMEVVTIGGLGNVYHWNFEPVFAIYNEIHEDFQGIISDELEAESMAFYHTEGCRREIGENNKVNTVAYHKYIEDLVATVDSDGLLTVYKPFTGKVLDGSREVGAAKS,not soluble
17,MSLKKYTMNEMVDITKDMLNKRGVMIEDIARIVQKLQEKYNPNLPLSVCMENVEKVLNKREIIHAVLTGLALDQLAEQKLLPEPLQHLVETDEPLYGIDEIIPLSIVNVYGSIGLTNFGYLDKEKIGIIKELDESPDGIHTFLDDIVAALAAAAASRIAHTHQDLQDEEKEQDEKPVVSEGGSHHHHHH,soluble
18,MLIKLGTELTKEEYVTRYMRNFQKLLLLGDRPKVLTNREEQLLQYEKELCVLFYEQFIKKHHRAPDEATLDDQVKANFIERSKIFARSPLVMDEGNFTQAHIGQLKRLRELRMEDYLPDNYTHILQREEELARNYFRKHDDYPFGYECLCISRSREVVNQGLEKLLEGFYDSYQVYYRRYRKNG,not soluble
19,MIRMPLATASLLAIAISLAGCGEGKDKAAAPAPAAAPAAPAAAPAAPAPAPAAAAQTDDAAAKAVVANYANMVSAVFDDAQGAAKKLSTAVDAFLAKPNDETLKAARDAWVAARVPYMQSEVFRFGNTIIDDWEGQVNAWPLDEGLIDYVAKDYQHALGNPGATANIIANTEIQVGEDKVDVKEITSEKLASLNELGGSEANVATGYHAIEFLLWGQDLNGTGPGAGARPASDYLEGAGATGGHNDRRRTYLKAVTDLLVSDLEEMAGNWKAGVADNYRATLEAESGESGLRKMLFGMGSLSLGELAGERMKVALEANSSEDEHDCFSDNTHNSHFYNGKGIRNVYLGEYTRTDGSKVSGPSLSSLVAKVDPATDATLRADLDDTQAKLQAIVDHANKGEHFDQLIGAGNTAGNQVVRDAIAALVKQTGAIEQAAGKLGITDLNPDNADHEF,soluble
20,MGSDKIHHHHHHMISNQILQNTIDGLKGITRTDLCVIDVEGKILAATFPNAEAFIEPAQAFVASPADSQVINGCQFFKVFDDHQLEYVLLAYGDSEDVYMIGKIASFQIQNLLVAYKERFDKDNFIKNLLLDNLLLVDIYNRAKKLHIDIEVRRVVFIVETNREKDGNELEKIRSLFGGKSKDFVTAVDEKNIIVVKELAENETYDDLRKTAEVILNLFRSEADGVHIAYGTVINELKEVSRSYKEARMALDVGKIFFEERNIIAYSQLGIGRLIYQLPIPLCKMFIKEIFDGKSPDDFDEEILSTINKFFENSLNVSETSRQLYIHRNTLVYRLDKLQKSTGLDLRVFEDAITFKIALMVVKYMKYMESMDY,not soluble
21,MAHHHHHHMGNTGVPSFVSTLGPPPPINLFKECQSPLTSGFSSWASFHWILLSDAFSHYYRPLECQTFYGCNFQKQLDAAANYNSFWPHHSRRLEAIRSNTPEQLCITSLHPPSRSPLTQQFPSGSFTQSPYGCRPRSLPCTAPQQWQMHRRSLQQGREHEAGRLLQQPLSFSLI,not soluble
